What was measured:
Conditions in all cases: both partners purified
BSA protein = BSA protein (Bos taurus (Bovine)., UniProt P02769); experiment: ELISA; Nbs tested on BSA protein (Figure S7); details not shown
[1] = target: T1, human glucose‐regulated protein 78 (hGRP78), full-length (Homo sapiens (Human)., UniProt P11021); experiment: SPR; Biacore T100; […] (10 µg mL^-1) […]; association 120 s, dissociation 300 s; […]
T1 construct: also called BiP; HSPA5

mouse GRP78 (mGRP78) = target: T2, mouse GRP78 (mGRP78) (Mus musculus (Mouse)., UniProt P20029); experiment: ELISA; hGRP78 or mGRP78 (10 µg mL^-1) immobilised on plates overnight at 4 °C; blocked with 3% BSA/PBS; serially diluted HA‐tagged Nbs 1 h at RT; HRP anti‐HA; OD450
T2 construct: also called murine GRP78
T2 sequence (P20029 20-655): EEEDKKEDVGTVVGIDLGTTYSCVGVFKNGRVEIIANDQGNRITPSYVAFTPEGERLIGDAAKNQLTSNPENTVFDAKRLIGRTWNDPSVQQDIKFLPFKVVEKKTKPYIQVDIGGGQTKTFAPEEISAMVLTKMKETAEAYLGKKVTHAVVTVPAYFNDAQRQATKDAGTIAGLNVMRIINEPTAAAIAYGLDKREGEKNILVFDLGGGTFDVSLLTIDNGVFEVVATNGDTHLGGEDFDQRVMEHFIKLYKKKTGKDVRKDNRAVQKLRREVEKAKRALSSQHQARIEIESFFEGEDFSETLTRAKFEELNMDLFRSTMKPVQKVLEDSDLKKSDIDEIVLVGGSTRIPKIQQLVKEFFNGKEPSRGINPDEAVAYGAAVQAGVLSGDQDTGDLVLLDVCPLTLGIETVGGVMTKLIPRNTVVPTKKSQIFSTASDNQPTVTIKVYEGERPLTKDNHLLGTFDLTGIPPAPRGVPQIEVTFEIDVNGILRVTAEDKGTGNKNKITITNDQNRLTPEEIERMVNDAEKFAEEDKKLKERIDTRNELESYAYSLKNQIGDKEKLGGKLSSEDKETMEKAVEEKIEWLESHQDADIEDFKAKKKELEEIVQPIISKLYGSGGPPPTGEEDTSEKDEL

Sequence of BSA protein (P02769 25-607): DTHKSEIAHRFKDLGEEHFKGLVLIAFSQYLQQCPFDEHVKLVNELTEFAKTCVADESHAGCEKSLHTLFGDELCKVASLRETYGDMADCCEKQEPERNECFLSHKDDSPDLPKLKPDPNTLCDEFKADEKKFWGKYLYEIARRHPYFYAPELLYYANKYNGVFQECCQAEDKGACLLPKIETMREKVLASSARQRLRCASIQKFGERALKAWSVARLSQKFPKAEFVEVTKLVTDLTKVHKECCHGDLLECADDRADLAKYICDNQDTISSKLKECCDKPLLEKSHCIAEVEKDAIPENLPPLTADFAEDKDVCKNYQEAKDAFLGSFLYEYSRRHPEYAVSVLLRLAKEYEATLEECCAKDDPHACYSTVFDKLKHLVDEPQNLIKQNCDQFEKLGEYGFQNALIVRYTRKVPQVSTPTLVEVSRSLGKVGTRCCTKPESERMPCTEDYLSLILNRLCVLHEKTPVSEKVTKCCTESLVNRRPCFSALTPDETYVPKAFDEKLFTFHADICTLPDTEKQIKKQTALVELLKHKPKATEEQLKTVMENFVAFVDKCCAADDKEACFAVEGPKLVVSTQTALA
T1 sequence (P11021 19-654): as the sequence (P20029 20-655) above, with F295Y, G620A, S631A counted along it

B1: Nb NBD1 (VHH)
VHH: AVQLVESGGGSVQAGGSLTLSCAASINTGNPALVGWYRQAPGKQREMVAMISISGNTNYAPSVKGRFTISRDNANKTIFLQMNSLTPEDTAVYYCKKLPFGSWGQGTQVTVSS
notes: source: E. coli BL21 (DE3), purified (Ni‐NTA, AKTA Pure System)
- binding result (BSA protein): no binding
- Kd [1]: 3.4 nM
- binding result (mouse GRP78 (mGRP78)): binds
